Measured values as given in US8013137B2, “Modified enteropeptidase protein” (National University Corporation Hokkaido University, priority 2006, dated 2011).

Tests used:
[1] = substrate: Cc1cc(=O)oc2cc(NC(=O)[C@H](CCCNC(=N)N)NC(=O)[C@H](Cc3ccccc3)NC(=O)OCc3ccccc3)ccc12; experiment: Kinetic parameters for MCA-containing peptide substrates, porcine EP; type: biochemical; conditions: other: Porcine
[2] = substrate: Cc1cc(=O)oc2cc(NC(=O)[C@H](CCCNC(=N)N)NC(=O)[C@H](C)NC(=O)[C@H](CCC(=O)OCc3ccccc3)NC(=O)OC(C)(C)C)ccc12; experiment: as above; type: biochemical; conditions: other: Porcine
[3] = substrate: Cc1cc(=O)oc2cc(NC(=O)[C@H](CCCNC(=N)N)NC(=O)[C@H](Cc3ccccc3)NC(=O)[C@@H]3CCCN3)ccc12; experiment: as above; type: biochemical; conditions: other: Porcine
[4] = substrate: Cc1cc(=O)oc2cc(NC(=O)[C@H](CCCNC(=N)N)NC(=O)[C@H](Cc3ccccc3)NC(=O)OCc3ccccc3)ccc12; experiment: purified protein, by the assay type
Experimental: (§1) Expression of the recombinant Medaka EP catalytic domain in the Escherichia coli expression system was carried out as described previously (Ogiwara et al., Proc. Natl. Acad. Sci. USA, 102:8442-8447 (2005)). The Medaka EP catalytic domain was produced as a fusion protein with an extra amino acid sequence of 50 residues at its N-terminus; the vector-derived N-terminal stretch contained a His-tag and an S-protein sequence. Harvested cells were lysed and the insoluble materials were dissolved in a solubilization buffer containing 6 M urea, 50 mM Tris.HCl (pH 7.6), and 0.5 M NaCl. […] Eluted recombinant proteins were renatured by dialysis against 50 mM Tris.HCl (pH 8.0). The fusion protein was then incubated in 50 mM Tris.HCl (pH 8.0) containing 0.5 M NaCl with trypsin immobilized on Sepharose 4B at room temperature for 1 h. The immobilized trypsin was then removed by filtration.
(§2) Site-directed mutagenesis of Medaka EP-1 was carried out to produce various mutant proteases. […] The subsequent procedures for preparation of mutant proteases were the same as for the wild-type protein described above. The active recombinant protein concentrations were determined using the active site titrant p-nitrophenyl-p′-guanidinobenzoate HCl (Sigma) using the method described previously (Chase et al., Biochem. Biophys. Res. Commun., 29:508-514 (1976)).
(§3) Enzyme activity for various 4-methylcoumaryl-7-amide (MCA)-containing peptide substrates was determined by the method of Barrett (Barrett et al., J., Biochem. J., 187:909-912 (1980)). For kinetic studies, initial velocities, extrapolated from the plot of product versus time, were transformed into double-reciprocal plots (Lineweaver et al., J. Am. Chem. Soc., 56:658-663 (1934)). The maximum velocities (Vmax) and Km and kcat values were obtained from the intercepts of these plots.

[5] = substrate: Cc1cc(=O)oc2cc(NC(=O)[C@H](CCCNC(=N)N)NC(=O)[C@H](C)NC(=O)[C@H](CCC(=O)OCc3ccccc3)NC(=O)OC(C)(C)C)ccc12; experiment: purified protein, by the assay type
Experimental: as §1, §2, §3

[6] = substrate: Cc1cc(=O)oc2cc(NC(=O)[C@H](CCCNC(=N)N)NC(=O)[C@H](Cc3ccccc3)NC(=O)[C@@H]3CCCN3)ccc12; experiment: purified protein, by the assay type
Experimental: as §1, §2, §3

[7] = substrate: Cc1cc(=O)oc2cc(NC(=O)[C@H](CCCNC(=N)N)NC(=O)[C@H](Cc3ccccc3)NC(=O)OCc3ccccc3)ccc12; experiment: Kinetic parameters for MCA-containing peptide substrates, EP-1(WT); type: biochemical, Japanese Medaka (Oryzias latipes); conditions: other: EP-1(WT)
[8] = substrate: Cc1cc(=O)oc2cc(NC(=O)[C@H](CCCNC(=N)N)NC(=O)[C@H](C)NC(=O)[C@H](CCC(=O)OCc3ccccc3)NC(=O)OC(C)(C)C)ccc12; experiment: as above; type: biochemical, Japanese Medaka (Oryzias latipes); conditions: other: EP-1(WT)
[9] = substrate: Cc1cc(=O)oc2cc(NC(=O)[C@H](CCCNC(=N)N)NC(=O)[C@H](Cc3ccccc3)NC(=O)[C@@H]3CCCN3)ccc12; experiment: as above; type: biochemical, Japanese Medaka (Oryzias latipes); conditions: other: EP-1(WT)

B1: porcine EP serine protease domain (Ile800 to His1034) (Sus scrofa) (protein)
chain: IVGGNDSREGAWPWVVALYYNGQLLCGASLVSRDWLVSAAHCVYGRNLEPSKWKAILGLHMTSNLTSPQIVTRLIDEIVINPHYNRRRKDSDIAMMHLEFKVNYTDYIQPICLPEENQVFPPGRICSIAGWGKVIYQGSPADILQEADVPLLSNEKCQQQMPEYNITENMMCAGYEEGGIDSCQGDSGGPLMCLENNRWLLAGVTSFGYQCALPNRPGVYARVPKFTEWIQSFLH
Km [1]: 200 µM
kcat [1]: 0.917 s⁻¹
kcat/Km [1]: 4670 M⁻¹ s⁻¹
Km [2]: 300 µM
kcat [2]: 1.83 s⁻¹
kcat/Km [2]: 6170 M⁻¹ s⁻¹
Km [3]: 3900 µM
kcat [3]: 5 s⁻¹
kcat/Km [3]: 1280 M⁻¹ s⁻¹

B2: medaka EP-1 enteropeptidase serine protease domain (parent SEQ ID NO: 2), variant P193E (Oryzias latipes; P970E) (protein)
chain: CGQRQVYNSKENNGVPRVVGGVNAEKGAWPWMVSLHWRGRHGCGASLIGRDWLLTAAHCVYGKNTHLQYWSAVLGLHAQSSMNSQEVQIRQVDRIIINKNYNRRTKEADIAMMHLQQPVNFTEWVLPVCLASEDQHFPAGRRCFIAGWGRDAEGGSLPDILQEAEVPLVDQDECQRLLPEYTFTSSMLCAGYEEGGVDSCQGDSGGPLMCLEDARWTLIGVTSFGVGCGRPERPGAYARVSAFTSWIAETRRSSFSDLD
Km ([4]; other: P193E): 200 µM
kcat ([4]; other: P193E): 0.0283 s⁻¹
kcat/Km ([4]; other: P193E): 150 M⁻¹ s⁻¹
Km ([5]; other: P193E): 200 µM
kcat ([5]; other: P193E): 0.0383 s⁻¹
kcat/Km ([5]; other: P193E): 200 M⁻¹ s⁻¹
Km ([6]; other: P193E): 1000 µM
kcat ([6]; other: P193E): 0.45 s⁻¹
kcat/Km ([6]; other: P193E): 450 M⁻¹ s⁻¹

B3: medaka EP-1 enteropeptidase serine protease domain (parent SEQ ID NO: 2), variant K63R (Oryzias latipes; K840R) (protein)
chain: CGQRQVYNSKENNGVPRVVGGVNAEKGAWPWMVSLHWRGRHGCGASLIGRDWLLTAAHCVYGRNTHLQYWSAVLGLHAQSSMNSQEVQIRQVDRIIINKNYNRRTKEADIAMMHLQQPVNFTEWVLPVCLASEDQHFPAGRRCFIAGWGRDAEGGSLPDILQEAEVPLVDQDECQRLLPEYTFTSSMLCAGYPEGGVDSCQGDSGGPLMCLEDARWTLIGVTSFGVGCGRPERPGAYARVSAFTSWIAETRRSSFSDLD
Km ([4]; other: K63R): 100 µM
kcat ([4]; other: K63R): 0.0233 s⁻¹
kcat/Km ([4]; other: K63R): 233 M⁻¹ s⁻¹
Km ([5]; other: K63R): 1200 µM
kcat ([5]; other: K63R): 0.2 s⁻¹
kcat/Km ([5]; other: K63R): 167 M⁻¹ s⁻¹
Km ([6]; other: K63R): 1100 µM
kcat ([6]; other: K63R): 0.183 s⁻¹
kcat/Km ([6]; other: K63R): 167 M⁻¹ s⁻¹

B4: medaka EP-1 enteropeptidase serine protease domain (parent SEQ ID NO: 2), variant T105E (Oryzias latipes; T882E) (protein)
chain: VVGGVNAEKGAWPWMVSLHWRGRHGCGASLIGRDWLLTAAHCVYGKNTHLQYWSAVLGLHAQSSMNSQEVQIRQVDRIIINKNYNRREKEADIAMMHLQQPVNFTEWVLPVCLASEDQHFPAGRRCFIAGWGRDAEGGSLPDILQEAEVPLVDQDECQRLLPEYTFTSSMLCAGYPEGGVDSCQGDSGGPLMCLEDARWTLIGVTSFGVGCGRPERPGAYARVSAFTSWIAETRRSSFSDLD
Km ([4]; other: T105E): 100 µM
kcat ([4]; other: T105E): 0.0333 s⁻¹
kcat/Km ([4]; other: T105E): 333 M⁻¹ s⁻¹
Km ([5]; other: T105E): 1300 µM
kcat ([5]; other: T105E): 0.183 s⁻¹
kcat/Km ([5]; other: T105E): 150 M⁻¹ s⁻¹
Km ([6]; other: T105E): 1300 µM
kcat ([6]; other: T105E): 0.267 s⁻¹
kcat/Km ([6]; other: T105E): 200 M⁻¹ s⁻¹

B5: medaka EP-1 enteropeptidase serine protease domain (parent SEQ ID NO: 2), variant E173A, SEQ ID NO: 4 (Oryzias latipes; E950A) (protein)
chain: VVGGVNAEKGAWPWMVSLHWRGRHGCGASLIGRDWLLTAAHCVYGKNTHLQYWSAVLGLHAQSSMNSQEVQIRQVDRIIINKNYNRRTKEADIAMMHLQQPVNFTEWVLPVCLASEDQHFPAGRRCFIAGWGRDAEGGSLPDILQEAEVPLVDQDACQRLLPEYTFTSSMLCAGYPEGGVDSCQGDSGGPLMCLEDARWTLIGVTSFGVGCGRPERPGAYARVSAFTSWIAETRRSSFSDLD
Km ([4]; other: E173A): 400 µM
kcat ([4]; other: E173A): 0.0383 s⁻¹
kcat/Km ([4]; other: E173A): 100 M⁻¹ s⁻¹
Km ([5]; other: E173A): 1000 µM
kcat ([5]; other: E173A): 0.167 s⁻¹
kcat/Km ([5]; other: E173A): 167 M⁻¹ s⁻¹
Km ([6]; other: E173A): 1000 µM
kcat ([6]; other: E173A): 0.153 s⁻¹
kcat/Km ([6]; other: E173A): 150 M⁻¹ s⁻¹

B6: medaka EP-1 enteropeptidase serine protease domain, wild type, SEQ ID NO: 2 (Oryzias latipes) (protein)
chain: VVGGVNAEKGAWPWMVSLHWRGRHGCGASLIGRDWLLTAAHCVYGKNTHLQYWSAVLGLHAQSSMNSQEVQIRQVDRIIINKNYNRRTKEADIAMMHLQQPVNFTEWVLPVCLASEDQHFPAGRRCFIAGWGRDAEGGSLPDILQEAEVPLVDQDECQRLLPEYTFTSSMLCAGYPEGGVDSCQGDSGGPLMCLEDARWTLIGVTSFGVGCGRPERPGAYARVSAFTSWIAETRRSSFSDLD
Km [7]: 100 µM
kcat [7]: 0.0483 s⁻¹
kcat/Km [7]: 483 M⁻¹ s⁻¹
Km [8]: 200 µM
kcat [8]: 0.112 s⁻¹
kcat/Km [8]: 567 M⁻¹ s⁻¹
Km [9]: 10000 µM
kcat [9]: 2.33 s⁻¹
kcat/Km [9]: 233 M⁻¹ s⁻¹
